In patent US6277976, “Or-1, an orphan receptor belonging to the nuclear receptor family” (Karo Bio AB):

Experiments:
OR-1 [1] = target: T1, OR-1 (UniProt Q62755 SEQ:1-446); test: EMSA; OR-1 alone; details: tags: none; TNT reticulocyte lysate; label: 32P
T1 sequence: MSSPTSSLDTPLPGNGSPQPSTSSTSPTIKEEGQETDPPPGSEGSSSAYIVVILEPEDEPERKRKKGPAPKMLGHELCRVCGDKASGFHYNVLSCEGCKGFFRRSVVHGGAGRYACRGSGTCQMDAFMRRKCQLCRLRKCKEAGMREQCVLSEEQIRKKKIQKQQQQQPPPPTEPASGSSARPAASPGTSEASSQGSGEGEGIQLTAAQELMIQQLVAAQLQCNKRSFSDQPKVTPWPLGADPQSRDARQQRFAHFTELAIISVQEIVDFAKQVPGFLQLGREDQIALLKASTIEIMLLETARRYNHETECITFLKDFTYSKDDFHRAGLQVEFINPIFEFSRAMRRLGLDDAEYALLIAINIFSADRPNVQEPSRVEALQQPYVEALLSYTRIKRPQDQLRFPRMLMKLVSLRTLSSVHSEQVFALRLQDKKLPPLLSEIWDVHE
Method: (§1) Gel shifts were performed using in vitro-translated OR-1 and RXR with the commercially-available TNT™-coupled reticulocyte lysate system (Promega, Madison USA). Proteins were incubated on ice for 15 min with 4 μg of poly (dI-dC) and with unlabelled competitor DNA where indicated in a solution comprising 100 mM KCl; 10 mM Hepes, pH 7.6; 1 mM dithiothreitol; 1 mM EDTA; 10% (wt./vol) glycerol, before addition of 0.5 ng of a ^32P-end labelled oligonucleotide probe. The reaction mixtures were incubated for a further 10 min at 22° C. before electrophoresis at 200V and 4° C. in pre-run 4% polyacryliamide/0.25 TBE (0.089 m tris-borate pH 8.3, 0.025 EDTA) gels. The following oligonucleotides and their complements were used as probes: DR0 […] (SEQ ID NO:3) DR1 […] (SEQ ID NO:4) DR2 […] (SEQ ID NO:5) DR3 […] (SEQ ID NO:6) DR4 […] (SEQ ID NO:7) DR5 […] (SEQ ID NO:8) DR6 […] (SEQ ID NO:9)

OR-1 [2] = target: T1, OR-1; test: EMSA; OR-1 alone; details: tags: none; TNT reticulocyte lysate; label: 32P; remark: listed apart in the source
Method: as §1
(§2) The appearance of this complex depends on the presence of RXR and is inhibited by a 10-fold excess of the specific DNA target element, but not by a 100-fold excess of an unrelated DNA element—see FIG. 5B, lane 7)

RXR (RXRalpha) = target: T2, RXR (RXRalpha) (UniProt Q05343 Q05343:1-467); test: EMSA; RXR alone; details: tags: none; pRRXR-T7, TNT reticulocyte lysate; label: 32P
T2 sequence: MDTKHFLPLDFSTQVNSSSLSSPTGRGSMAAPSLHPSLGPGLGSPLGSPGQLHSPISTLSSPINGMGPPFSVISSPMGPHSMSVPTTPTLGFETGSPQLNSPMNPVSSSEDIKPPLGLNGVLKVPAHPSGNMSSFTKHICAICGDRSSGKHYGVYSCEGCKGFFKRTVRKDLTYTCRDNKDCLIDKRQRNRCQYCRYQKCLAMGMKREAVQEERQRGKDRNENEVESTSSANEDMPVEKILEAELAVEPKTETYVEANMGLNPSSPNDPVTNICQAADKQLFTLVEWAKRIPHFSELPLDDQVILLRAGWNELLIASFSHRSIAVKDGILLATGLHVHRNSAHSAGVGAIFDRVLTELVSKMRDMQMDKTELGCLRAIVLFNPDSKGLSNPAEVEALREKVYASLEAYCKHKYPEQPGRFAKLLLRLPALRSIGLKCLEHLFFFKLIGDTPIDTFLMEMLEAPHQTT
Method: as §1, §2

OR-1/RXR heterodimer = target: T3, OR-1/RXR heterodimer (UniProt Q62755;Q05343 Q62755:1-446,Q05343:1-467); test: EMSA; 100 mM KCl, 10 mM Hepes pH 7.6, 1 mM EDTA, 22 C; inhibited by 10-fold excess specific DNA, not by 100-fold unrelated DNA; details: tags: RXR from pRRXR-T7; label: 32P
T3 sequence 1: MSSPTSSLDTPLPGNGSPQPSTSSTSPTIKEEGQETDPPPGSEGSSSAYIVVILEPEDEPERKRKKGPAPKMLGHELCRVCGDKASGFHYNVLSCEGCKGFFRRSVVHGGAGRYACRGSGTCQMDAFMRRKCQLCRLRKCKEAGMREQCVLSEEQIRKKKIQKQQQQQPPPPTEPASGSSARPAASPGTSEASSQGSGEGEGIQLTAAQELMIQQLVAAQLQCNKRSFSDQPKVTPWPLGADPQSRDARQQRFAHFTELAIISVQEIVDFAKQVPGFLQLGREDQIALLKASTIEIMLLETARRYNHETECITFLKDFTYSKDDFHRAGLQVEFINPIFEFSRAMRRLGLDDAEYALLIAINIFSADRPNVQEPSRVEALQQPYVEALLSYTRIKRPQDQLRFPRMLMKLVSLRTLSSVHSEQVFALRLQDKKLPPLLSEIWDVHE
T3 sequence 2: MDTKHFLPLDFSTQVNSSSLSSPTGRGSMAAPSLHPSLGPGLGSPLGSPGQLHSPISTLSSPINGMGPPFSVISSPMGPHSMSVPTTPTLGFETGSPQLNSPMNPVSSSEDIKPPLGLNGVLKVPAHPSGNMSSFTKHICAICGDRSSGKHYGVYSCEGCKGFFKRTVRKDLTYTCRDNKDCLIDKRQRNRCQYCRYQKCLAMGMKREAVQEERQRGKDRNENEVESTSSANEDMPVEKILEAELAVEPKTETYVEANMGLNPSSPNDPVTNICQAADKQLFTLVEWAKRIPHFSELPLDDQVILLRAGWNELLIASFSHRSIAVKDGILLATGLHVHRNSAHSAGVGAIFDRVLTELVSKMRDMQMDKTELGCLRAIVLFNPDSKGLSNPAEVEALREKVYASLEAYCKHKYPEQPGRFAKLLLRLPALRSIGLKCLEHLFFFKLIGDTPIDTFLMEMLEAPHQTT
Method: as §1, §2

B1: DR1 (dsDNA)
DNA 1: AGCTTCAGGTCACAGGTCAGTTCA
DNA 2: TGAACTGACCTGTGACCTGAAGCT
B1: no binding (OR-1 [1]).

B2: DR2 (dsDNA)
DNA 1: AGCTTAGGTCACCAGGTCAGTTCA
DNA 2: TGAACTGACCTGGTGACCTAAGCT
B2: no binding (OR-1 [2]).

B3: DR5 (dsDNA)
DNA 1: AGTCAGGTCACTCGTAGGTCAGTCA
DNA 2: TGACTGACCTACGAGTGACCTGACT
B3: no binding (OR-1 [1]).

B4: DR3 (dsDNA)
DNA 1: AGTCCAGGTCACTCAGGTCAGTCA
DNA 2: TGACTGACCTGAGTGACCTGGACT
B4: no binding (OR-1 [1]).

B5: DR4 (dsDNA)
DNA 1: AGTCAGGTCACTCGAGGTCAGTCA
DNA 2: TGACTGACCTCGAGTGACCTGACT
B5: no binding (OR-1 [2]); no binding (RXR (RXRalpha)); binds (OR-1/RXR heterodimer).

B6: DR0 (dsDNA)
DNA 1: AGCTTCAGGTCAAGGTCAGGTTCA
DNA 2: TGAACCTGACCTTGACCTGAAGCT
B6: no binding (OR-1 [1]).

B7: DR6 (dsDNA)
DNA 1: AGTCAGGTCACTCGTTAGGTCAGTCA
DNA 2: TGACTGACCTAACGAGTGACCTGACT
B7: no binding (OR-1 [1]).
